“And” between values parts separate entries of the source, which are not always exact repeats. Identical values can stand only once.
Tests used:
[1] = target: Human chorionic gonadotropin (human) (UniProt P01215); assay: multiplex sandwich, MAB602 capture beads; hCG 2000 ng/mL, no wash
[2] = target: Human chorionic gonadotropin (human) (UniProt P01215); assay: sandwich, MAB602 capture beads, flow cytometry; hCG 0.02 ng/mL
[3] = target: Alpha fetoprotein (UniProt P02771); assay: MAB602 capture beads, flow cytometry; AFP 0.1 ng/mL, anti-hCG probe
[4] = target: Human chorionic gonadotropin (human) (UniProt P01215); assay: multiplex no-wash sandwich, MAB602 beads; Unknown serum, hCG computed 218.55 mU/mL
[5] = target: Human chorionic gonadotropin (human) (UniProt P01215); assay: bead sandwich, flow cytometry; capture A1 beads, no hCG (background)
[6] = target: Human chorionic gonadotropin (human) (UniProt P01215); assay: multiplex sandwich, MAB602 capture beads; hCG 0 ng/mL, no wash
[7] = target: Human chorionic gonadotropin (human) (UniProt P01215); assay: sandwich, MAB602 capture beads, flow cytometry; hCG 2 ng/mL
[8] = target: Human chorionic gonadotropin (human) (UniProt P01215); assay: multiplex sandwich, MAB602 capture beads; hCG 250 ng/mL, no wash
[9] = target: Human chorionic gonadotropin (human) (UniProt P01215); assay: sandwich, MAB602 capture beads, flow cytometry; hCG 0.2 ng/mL
[10] = target: Human chorionic gonadotropin (human) (UniProt P01215); assay: multiplex sandwich, MAB602 capture beads; hCG 4 ng/mL, no wash
[11] = target: Human chorionic gonadotropin (human) (UniProt P01215); assay: multiplex sandwich, MAB602 capture beads; hCG 8 ng/mL, washed
[12] = target: Human chorionic gonadotropin (human) (UniProt P01215); assay: multiplex sandwich, MAB602 capture beads; hCG 0.5 ng/mL, washed
[13] = target: Human chorionic gonadotropin (human) (UniProt P01215); assay: MAB602 capture beads, flow cytometry; hCG 10.0 ng/mL, anti-hCG probe
[14] = target: Alpha fetoprotein (UniProt P02771); assay: multiplex sandwich, S10473 capture beads; AFP 125 ng/mL, washed
[15] = target: Alpha fetoprotein (UniProt P02771); assay: multiplex sandwich, S10473 capture beads; AFP 250 ng/mL, washed
[16] = target: Alpha fetoprotein (UniProt P02771); assay: multiplex sandwich, S10473 capture beads; AFP 16 ng/mL, no wash
[17] = target: Alpha fetoprotein (UniProt P02771); assay: multiplex no-wash sandwich, S10473 beads; serum Level 3, AFP 223 U/mL
[18] = target: Alpha fetoprotein (UniProt P02771); assay: multiplex sandwich, S10473 capture beads; AFP 0.5 ng/mL, no wash
[19] = target: Alpha fetoprotein (UniProt P02771); assay: multiplex sandwich, S10473 capture beads; AFP 16 ng/mL, washed
[20] = target: Alpha fetoprotein (UniProt P02771); assay: multiplex sandwich, S10473 capture beads; AFP 125 ng/mL, no wash
[21] = target: Alpha fetoprotein (UniProt P02771); assay: multiplex sandwich, S10473 capture beads; AFP 31 ng/mL, washed
[22] = target: Alpha fetoprotein (UniProt P02771); assay: anti-AFP capture beads, flow cytometry; AFP 1000.0 ng/mL, anti-AFP probe
[23] = target: Neutravidin (deglycosylated avidin) (UniProt P02701); assay: multiplex, Neutravidin bead 70/50 without peptide, flow cytometry
[24] = target: Peptide 9 …-biotin; assay: multiplex peptide beads, flow cytometry; beads pre-incubated with free biotin 10 ug/mL
[25] = target: Peptide 5 …-biotin (human); assay: as above
[26] = target: Peptide 7 …-biotin; assay: as above
[27] = target: Peptide 1 …-biotin; assay: as above
[28] = target: Peptide 2 …-biotin; assay: as above
[29] = target: Peptide 6 …-biotin; assay: as above
[30] = target: Peptide 3 …-biotin; assay: as above
[31] = target: Peptide 8 …-biotin; assay: as above
[32] = target: Peptide 4 …-biotin; assay: as above
[33] = target: Peptide 9 …-biotin; assay: multiplex peptide beads, flow cytometry; antibody pre-mixed with soluble HYGSLPQK 10 ug/mL (competitor m18)
[34] = target: Peptide 5 …-biotin (human); assay: as above
[35] = target: Peptide 7 …-biotin; assay: as above
[36] = target: Peptide 1 …-biotin; assay: as above
[37] = target: Peptide 2 …-biotin; assay: as above
[38] = target: Peptide 6 …-biotin; assay: as above
[39] = target: Peptide 3 …-biotin; assay: as above
[40] = target: Peptide 8 …-biotin; assay: as above
[41] = target: Peptide 4 …-biotin; assay: as above
[42] = target: Neutravidin (deglycosylated avidin) (UniProt P02701); assay: single-analyte, Neutravidin bead 40/50 without peptide, flow cytometry

Sequence of UniProt P02771 (P02771 19-609 limits assumed): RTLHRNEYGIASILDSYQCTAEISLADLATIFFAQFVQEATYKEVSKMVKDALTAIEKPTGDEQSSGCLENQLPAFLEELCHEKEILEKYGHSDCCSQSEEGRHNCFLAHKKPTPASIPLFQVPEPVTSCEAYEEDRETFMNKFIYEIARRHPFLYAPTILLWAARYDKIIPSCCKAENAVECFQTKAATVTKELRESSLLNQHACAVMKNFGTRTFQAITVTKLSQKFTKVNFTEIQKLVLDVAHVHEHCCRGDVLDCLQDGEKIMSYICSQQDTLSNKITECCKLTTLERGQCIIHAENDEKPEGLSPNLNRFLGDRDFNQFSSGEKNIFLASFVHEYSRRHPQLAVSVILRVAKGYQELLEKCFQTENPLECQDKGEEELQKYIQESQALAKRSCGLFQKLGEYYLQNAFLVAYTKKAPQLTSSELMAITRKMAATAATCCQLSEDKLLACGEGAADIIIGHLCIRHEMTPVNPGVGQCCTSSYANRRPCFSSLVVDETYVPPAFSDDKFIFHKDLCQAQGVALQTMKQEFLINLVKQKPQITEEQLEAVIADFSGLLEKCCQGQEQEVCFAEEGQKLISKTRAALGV
Sequence of UniProt P01215 (P01215 25-116, chain 1 of 2, other chains not shown): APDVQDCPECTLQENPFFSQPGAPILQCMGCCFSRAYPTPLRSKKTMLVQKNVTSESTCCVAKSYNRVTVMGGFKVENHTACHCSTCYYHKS
Sequence of UniProt P02701 (P02701 25-152 limits assumed): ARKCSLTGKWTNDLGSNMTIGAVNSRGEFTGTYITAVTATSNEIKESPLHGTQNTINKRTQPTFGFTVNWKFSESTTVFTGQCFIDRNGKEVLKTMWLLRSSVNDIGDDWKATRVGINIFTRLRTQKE

With “AB633 affinity purified polyclonal anti-hCG antibody, Bodipy FL-CASE labeled” the MIF of Fm [1] was 491, the MIF of Fm [2] was 120 and 147 and the MIF of Fm [3] was 52. For the same substance, the MIF AVG [4] was 272, the MIF of FL1 [4] was 270 and 264 and 283 and the MIF of Fm [5] was 108. The MIF of Fm [6] was 15, the MIF of Fm [7] was 1290 and 1380 and the MIF of Fm [8] was 1520. The MIF of Fm [9] was 258 and 254, the MIF of Fm [10] was 1120 and the MIF of Fm [11] was 1960. It also gave an MIF of Fm [12] of 175 and an MIF of Fm [13] of 530.
In the case of “M20077 affinity purified polyclonal anti-AFP antibody, Bodipy FL-CASE labeled”, the MIF of Fm [14] is reported as 1050, the MIF of Fm [15] is reported as 1200 and the MIF of Fm [16] is reported as 359. The MIF AVG [17] was 1060, the MIF of FL1 [17] was 1110 and 994 and 1080 and the MIF of Fm [18] was 24. It also gave an MIF of Fm [19] of 347, an MIF of Fm [20] of 1060 and an MIF of Fm [21] of 612. It also gave an MIF of Fm [22] of 348.
Work on MAB 384, Bodipy FL-X labeled (antibody) yielded an MIF of Fm [23] of 28, an MIF [24] of 36 and an MIF [25] of 1020. For the same substance, the MIF [26] was 23, the MIF [27] was 17 and the MIF [28] was 19. It also gave an MIF [29] of 20, an MIF [30] of 22 and an MIF [31] of 34. For the same substance, the MIF [32] was 26, the MIF of Fm [33] was 17 and the MIF of Fm [34] was 53. It also gave an MIF of Fm [35] of 11, an MIF of Fm [36] of 4 and an MIF of Fm [37] of 7. For the same substance, the MIF of Fm [38] was 15, the MIF of Fm [39] was 12 and the MIF of Fm [40] was 9. For the same substance, the MIF of Fm [41] was 13 and the MIF of Fm [42] was 47.
